# Test results reported in publication PMC2817712.
# B1: CheY4 (wild type) with an engineered C-terminal biotinylation tag, for SPR surfaces P12A; S13M; C16L; M17Y (protein)
# chain: MTKTVLAVDDSAMIRLYVALTLREAGYEVIEASDGQEALDLALSRPVDAILTDQNMPRLDGLGFIRAFRSRPEGKGTPIVFLSTESADTLKAEARAAGALGWMVKPFTQAQLLAVMKKLLG
# B2: CheY4 (wild type) with an engineered C-terminal biotinylation tag, for SPR surfaces P12A; S13M (protein)
# chain: MTKTVLAVDDSAMIRCMVALTLREAGYEVIEASDGQEALDLALSRPVDAILTDQNMPRLDGLGFIRAFRSRPEGKGTPIVFLSTESADTLKAEARAAGALGWMVKPFTQAQLLAVMKKLLG
# Biological target: T1, CheA3P1, the isolated P1 (Hpt, histidine-containing phosphotransfer) domain of CheA3 (residues 1-135), unphosphorylated
# T1 chain: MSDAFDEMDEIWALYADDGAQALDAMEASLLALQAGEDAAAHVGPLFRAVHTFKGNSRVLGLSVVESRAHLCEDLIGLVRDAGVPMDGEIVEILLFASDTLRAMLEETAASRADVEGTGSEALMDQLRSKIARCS
# Test: SPR
# Conditions: chain shown with the change; CheA3P1 injected over surfaces coupled with the respective RR; CheA3P1 concentration ranging from 120 nM to 2 mM; parent: ND
row,Binder,Kd [µM]
1,B1,365
2,B2,678
